Usually stoichiometry N stands for a count of units in the complex or per binding partner.

The source of these data is article PMC4833825.

The target in the test is recombinant S. pombe eIF2B, one set of the five subunits (α, β, γ, δ, ε), tags cleaved (S. pombe) (UniProt Q9USP0). Nature of the test: SEC; purified complex after HRV 3C cleavage of the tags; Sephacryl S-300, then Superose 6 with HMW calibration kit, buffer C (20 mM HEPES-KOH pH 7.5, 150 mM KCl, 5 % glycerol, 1 mM DTT), 277 K; SDS-PAGE of the purified complex. For orientation: In gel filtration, larger molecules generally elute earlier.

On to “recombinant S. pombe eIF2B, one set of the five subunits (α, β, γ, δ, ε), tags cleaved, Q9USP0 1-341; Q9UT76 1-393; P56288 1-458; Q09924 1-467; P56287 1-678”, for which the stoichiometry N came to 2.
